Results reported in the Human Domainome abundance scans (Beltran et al. 2025).
± gives the uncertainty stated by the source.

B1: Kinesin-like protein KIF16B, residues 1213 to 1273; numbered along this chain, Q96L93 (parent)
chain: ETWTVFRRYSRFREMHKTLKLKYAELAALEFPPKKLFGNKDERVIAERRSHLEKYLRDFFS

Variants of: B1
Assay: abundance fitness (aPCA) (normalised: wild type 0, dead -1); higher = more abundant; growth selection in yeast, the domain comes from the species named
Settings: Homo sapiens

Row | Variant | abundance fitness
1 | ETWTVFRRYSRFREMHKTLKLKYAELAALEFPPKKLFGNKDERVIAEDRSHLEKYLRDFFS [R48D] | -0.186 ± 0.24
2 | ETWTVFRRYSRFREMHKTLKLKYAELAALEFPPKKLFGNKDERVIAEKRSHLEKYLRDFFS [R48K] | -0.061 ± 0.11
3 | ETWTVFRRYSRFREMHKTLKLKYAELAALEFPPKKLFGNKDERVIAEERSHLEKYLRDFFS [R48E] | -0.374 ± 0.082
4 | ETWTVFRRYSRFREMHKTLKLKYAELAALEFPPKKLFGNKDERVIAEFRSHLEKYLRDFFS [R48F] | 0.087 ± 0.063
5 | ETWTVFRRYSRFREMHKTLKLKYAELAALEFPPKKLFGNKDERVIAEIRSHLEKYLRDFFS [R48I] | 0.123 ± 0.16
6 | ETWTVFRRYSRFREMHKTLKLKYAELAALEFPPKKLFGNKDERVIAECRSHLEKYLRDFFS [R48C] | -0.148 ± 0.13
7 | ETWTVFRRYSRFREMHKTLKLKYAELAALEFPPKKLFGNKDERVIAEGRSHLEKYLRDFFS [R48G] | 0.108 ± 0.047
8 | ETWTVFRRYSRFREMHKTLKLKYAELAALEFPPKKLFGNKDERVIMERRSHLEKYLRDFFS [A46M] | -0.073 ± 0.068
9 | ETWTVFRRYSRFREMHKTLKLKYAELAALEFPPKKLFGNKDERVISERRSHLEKYLRDFFS [A46S] | 0.147 ± 0.074
10 | ETWTVFRRYSRFREMHKTLKLKYAELAALEFPPKKLFGNKDERVICERRSHLEKYLRDFFS [A46C] | 0.093 ± 0.22
11 | ETWTVFRRYSRFREMHKTLKLKYAELAALEFPPKKLFGNKDERVIRERRSHLEKYLRDFFS [A46R] | 0.131 ± 0.041
12 | ETWTVFRRYSRFREMHKTLKLKYAELAALEFPPKKLFGNKDERVIPERRSHLEKYLRDFFS [A46P] | 0.256 ± 0.095
13 | ETWTVFRRYSRFREMHKTLKLKYAELAALEFPPKKLFGNKDERVIGERRSHLEKYLRDFFS [A46G] | 0.211 ± 0.044
14 | ETWTVFRRYSRFREMHKTLKLKYAELAALEFPPKKLFGNKDERVIQERRSHLEKYLRDFFS [A46Q] | -0.03 ± 0.13
15 | ETWTVFRRYSRFREMHKTLKLKYAELAALEFPPKKLFGNKDERVIWERRSHLEKYLRDFFS [A46W] | -0.176 ± 0.089
16 | ETWTVFRRYSRFREMHKTLKLKYAELAALEFPPKKLFGNKDERVIYERRSHLEKYLRDFFS [A46Y] | -0.262 ± 0.13
17 | ETWTVFRRYSRFREMHKTLKLKYAELAALEFPPKKLFGNKDERVIEERRSHLEKYLRDFFS [A46E] | 0.037 ± 0.078
18 | ETWTVFRRYSRFREMHKTLKLKYAELAALEFPPKKLFGNKDERVIVERRSHLEKYLRDFFS [A46V] | -0.057 ± 0.054
19 | ETWTVFRRYSRFREMHKTLKLKYAELAALEFPPKKLFGNKDERVIKERRSHLEKYLRDFFS [A46K] | 0.186 ± 0.073
20 | ETWTVFRRYSRFREMHKTLKLKYAELAALEFPPKKLFGNKDERVIFERRSHLEKYLRDFFS [A46F] | -0.27 ± 0.18
21 | ETWTVFRRYSRFREMHKTLKLKYAELAALEFPPKKLFGNKDERVIDERRSHLEKYLRDFFS [A46D] | -0.01 ± 0.092
22 | ETWTVFRRYSRFREMHKTLKLKYAELAALEFPPKKLFGNKDERVILERRSHLEKYLRDFFS [A46L] | -0.324 ± 0.09

Row | Variant | abundance fitness
23 | ETWTVFRRYSRFREMHKTLKLKYAELAALEFPPKKLFGNKDERVITERRSHLEKYLRDFFS [A46T] | 0.242 ± 0.068
24 | ETWTVFRRYSRFREMHKTLKLKYAELAALEFPPKKLFGNKDERVYAERRSHLEKYLRDFFS [I45Y] | -0.274 ± 0.099
25 | ETWTVFRRYSRFREMHKTLKLKYAELAALEFPPKKLFGNKDERVWAERRSHLEKYLRDFFS [I45W] | 0.35 ± 0.052
26 | ETWTVFRRYSRFREMHKTLKLKYAELAALEFPPKKLFGNKDERVIALRRSHLEKYLRDFFS [E47L] | -0.274 ± 0.068
27 | ETWTVFRRYSRFREMHKTLKLKYAELAALEFPPKKLFGNKDERVIANRRSHLEKYLRDFFS [E47N] | 0.099 ± 0.12
28 | ETWTVFRRYSRFREMHKTLKLKYAELAALEFPPKKLFGNKDERVIAARRSHLEKYLRDFFS [E47A] | -0.307 ± 0.14
29 | ETWTVFRRYSRFREMHKTLKLKYAELAALEFPPKKLFGNKDERVIATRRSHLEKYLRDFFS [E47T] | 0.132 ± 0.087
30 | ETWTVFRRYSRFREMHKTLKLKYAELAALEFPPKKLFGNKDERVIAWRRSHLEKYLRDFFS [E47W] | 0.014 ± 0.069
31 | ETWTVFRRYSRFREMHKTLKLKYAELAALEFPPKKLFGNKDERVIADRRSHLEKYLRDFFS [E47D] | 0.183 ± 0.079
32 | ETWTVFRRYSRFREMHKTLKLKYAELAALEFPPKKLFGNKDERVIASRRSHLEKYLRDFFS [E47S] | 0.091 ± 0.05
33 | ETWTVFRRYSRFREMHKTLKLKYAELAALEFPPKKLFGNKDERVIAKRRSHLEKYLRDFFS [E47K] | -0.011 ± 0.16
34 | ETWTVFRRYSRFREMHKTLKLKYAELAALEFPPKKLFGNKDERVIAHRRSHLEKYLRDFFS [E47H] | 0.129 ± 0.2
35 | ETWTVFRRYSRFREMHKTLKLKYAELAALEFPPKKLFGNKDERVIAVRRSHLEKYLRDFFS [E47V] | -0.173 ± 0.054
36 | ETWTVFRRYSRFREMHKTLKLKYAELAALEFPPKKLFGNKDERVIAYRRSHLEKYLRDFFS [E47Y] | -0.223 ± 0.093
37 | ETWTVFRRYSRFREMHKTLKLKYAELAALEFPPKKLFGNKDERVIAPRRSHLEKYLRDFFS [E47P] | 0.118 ± 0.072
38 | ETWTVFRRYSRFREMHKTLKLKYAELAALEFPPKKLFGNKDERVIAFRRSHLEKYLRDFFS [E47F] | 0.117 ± 0.11
39 | ETWTVFRRYSRFREMHKTLKLKYAELAALEFPPKKLFGNKDERVIAMRRSHLEKYLRDFFS [E47M] | -0.053 ± 0.09
40 | ETWTVFRRYSRFREMHKTLKLKYAELAALEFPPKKLFGNKDERVIAQRRSHLEKYLRDFFS [E47Q] | -0.175 ± 0.085
41 | ETWTVFRRYSRFREMHKTLKLKYAELAALEFPPKKLFGNKDERVIACRRSHLEKYLRDFFS [E47C] | 0.038 ± 0.09
42 | ETWTVFRRYSRFREMHKTLKLKYAELAALEFPPKKLFGNKDERVIARRRSHLEKYLRDFFS [E47R] | 0.099 ± 0.045
43 | ETWTVFRRYSRFREMHKTLKLKYAELAALEFPPKKLFGNKDERVIAGRRSHLEKYLRDFFS [E47G] | 0.243 ± 0.051
44 | ETWTVFRRYSRFREMHKTLKLKYAELAALEFPPKKLFGNKDERVIAIRRSHLEKYLRDFFS [E47I] | -0.2 ± 0.29
